Measurements published in patent US20250066503A1, “CELL INJURY INDUCING THERAPEUTIC DRUG FOR USE IN CANCER THERAPY” (CHUGAI SEIYAKU KABUSHIKI KAISHA, priority 2016, published 2025).

Tests used:
[1] = test system: cell lines derived from various cancer types (GPC3-expressing target cells); assay: TDCC activity by LDH release test with human PBMCs as effector cells; assay type: cell-based; conditions: about 24 hours
Method: TDCC activity of each test antibody was measured by the method described below. Human peripheral blood mononuclear cells (hereinafter referred to as human PBMCs) were used as effector cells and TDCC activity of each test antibody was measured as follows.
50 ml of peripheral blood was collected from a healthy person in Chugai Pharmaceutical Co. Ltd. using a syringe pre-loaded with 500 μl of 5000 units/5 ml heparin solution. The peripheral blood diluted two-fold with PBS was divided into four aliquots and added to Leucosep tubes for lymphocyte separation (GE Healthcare) which had been loaded with 15 ml of Ficoll-Paque PLUS and centrifuged in advance. […]
TDCC activity was assessed by an LDH release method (LDH Cytotoxicity Detection Kit, TAKARA). […] The absorbance at 490 to 492 nm was measured with a plate reader. The reference wavelength used was 600 to 620 nm, and the absorbance was subtracted from that at 490 to 492 nm. […]
Cytotoxic activity was determined based on this equation.
Here, A represents the absorbance of a mixture of target cells, effector cells, and antibody; B represents the absorbance of effector cells; C represents the absorbance of target cells; and D represents the absorbance of target cells with Triton X-100 added.

[2] = test system: LLC1/hGPC3 syngeneic tumor; assay: In vivo drug efficacy, human CD3εδγ gene-modified mouse model; design: species or system human CD3εδγ gene-modified mice; conditions: 5 mg/kg Day 11 and Day 14, compared to solvent group or anti-human GPC3, anti-mouse CTLA-4, PD-1, PD-L1 antibodies at 25 mg/kg
Method: Methods called an NOD scid/T cell-injected model, a humanized NOG mouse model, and a human CD3εδγ gene-modified mouse model were used in the in vivo drug efficacy evaluation. Assay using an NOD scid/T cell-injected model was performed as follows. […] T cells expanded by culturing human PBMCs in vitro were injected into the NOD scid mice with confirmed tumor establishment. The mice were treated by administering bispecific antibody-38 and bispecific antibody-30, -31, -32, or -33. Assay using a humanized NOG mouse model was performed as follows. CD34-positive hematopoietic stem cells derived from umbilical cord blood were transplanted into NOG mice by tail vein injection. Human T cells are constantly supplied in the mice, which are called humanized NOG mice. The PC-10 cell line was transplanted into humanized NOG mice. The humanized NOG mice with confirmed establishment of PC-10 tumor were treated by administering antibody-38. Assay using a human CD3εδγ gene-modified mouse model was performed as follows. Cells of mouse-derived cell line forced to express human GPC3 were transplanted into a human CD3εδγ gene-modified mouse model, which had been prepared according to Reference Example 10. The human CD3εδγ gene-modified mice with confirmed tumor establishment were treated by administering antibody-38. […]

B1: antibody-38: anti-human CD3ε chain and anti-human GPC3 bispecific antibody; H chains SEQ ID NO: 385 and 402, common L chains SEQ ID NO: 410 (antibody)
heavy 1: QVQLVQSGAEVKKPGASVTVSCKASGYTFTDYEMHWIRQPPGEGLEWIGAIDGPTPDTAYSEKFKGRVTLTADKSTSTAYMELSSLTSEDTAVYYCTRFYSYTYWGQGTLVTVSSASTKGPSVFPLAPCSRSTSESTAALGCLVKDYFPEPVTVSWNSGALTSGVHTFPAVLQSSGLYSLSSVVTVPSSSLGTQTYTCNVDHKPSNTKVDKRVESKYGPPCPPCPAPEFRGGPKVFLFPPKPKDTLMISRTPEVTCVVVDVSQEDPEVQFNWYVDGVEVHNAKTKPREEQFASTYRVVSVLTVLHQDWLNGKEYKCKVSNKGLPSSIEKTISKAKGQPREPQVYTLPPSQEEMTKNQVSLTCLVKGFYPSDIAVEWESNGQPENNYKTTPPVLDSDGSFFLYSKLTVDKSRWQEGNVFSCSVMHEALHNHYTQESLSLSP
heavy 2: QVQLVESGGGVVQPGGSLRLSCAASGFTFSNAWMHWVRQAPGKGLEWVAQIKDKSQNYATYVAESVKGRFTISRADSKNSIYLQMNSLKTEDTAVYYCRYVHYAAGYGVDIWGQGTTVTVSSASTKGPSVFPLAPCSRSTSESTAALGCLVKDYFPEPVTVSWNSGALTSGVHTFPAVLQSSGLYSLSSVVTVPSSSLGTKTYTCNVDHKPSNTKVDKRVESKYGPPCPPCPAPEFRGGPKVFLFPPKPKDTLMISRTPEVTCVVVDVSQEDPEVQFNWYVDGVEVHNAKTKPREEQFASTYRVVSVLTVLHQDWLNGKEYKCKVSNKGLPSSIEKTISKAKGQPREPQVYTLPPSQKEMTKNQVSLTCLVKGFYPSDIAVEWESNGQPENNYKTTPPVLDSDGSFFLYSKLTVDKSRWQEGNVFSCSVMHEALHNHYTQKSLSLSP
light: DIVMTQSPLSLPVTPGEPASISCRSSQPLVHSNRNTYLHWYQQKPGQAPRLLIYKVSNRFSGVPDRFSGSGSGTDFTLKISRVEAEDVGVYYCGQGTQVPYTFGQGTKLEIKRTVAAPSVFIFPPSDEQLKSGTASVVCLLNNFYPREAKVQWKVDNALQSGNSQESVTEQDSKDSTYSLSSTLTLSKADYEKHKVYACEVTHQGLSSPVTKSFNRGEC
modifications: An artificially generated sequence
In the case of B1, the “TDCC activity (LDH release)” value [1] is reported as “clearly observed” and the anti-tumor effect [2] is reported as “evident anti-tumor effect”.
